Source: publication PMC11109247 (Nature Communications, 2024)
Several values for one entry are separate records, joined by “and”; a condition that tells them apart may be missing. Identical values can stand only once.

Columns and labels:
[1] = target: the molecule itself; experiment: SDS-PAGE without reduction and boiling
[2] = target: T1, soluble NiVMY G ectodomain used for structural determination (residues 72-602, His tag) (Nipah virus Malaysia (NiVMY), UniProt Q9IH62); experiment: cryo-EM structure; details: both partners purified
T1 construct: source: Expi293F, transient transfection, purified

[3] = target: NiVMY G ectodomain (Nipah virus, Malaysia (GenBank …, UniProt E2II03)); experiment: cell-based or functional assay
[4] = target: NiVBD G ectodomain (Nipah virus, Bangladesh (GenBank …, UniProt Q4VCP5, strain)); experiment: cell-based or functional assay
[5] = target: HeV G ectodomain (Hendra virus (isolate …, UniProt O89343)); experiment: cell-based or functional assay
HeV G ectodomain (Hendra virus, sequence (O89343 71-604): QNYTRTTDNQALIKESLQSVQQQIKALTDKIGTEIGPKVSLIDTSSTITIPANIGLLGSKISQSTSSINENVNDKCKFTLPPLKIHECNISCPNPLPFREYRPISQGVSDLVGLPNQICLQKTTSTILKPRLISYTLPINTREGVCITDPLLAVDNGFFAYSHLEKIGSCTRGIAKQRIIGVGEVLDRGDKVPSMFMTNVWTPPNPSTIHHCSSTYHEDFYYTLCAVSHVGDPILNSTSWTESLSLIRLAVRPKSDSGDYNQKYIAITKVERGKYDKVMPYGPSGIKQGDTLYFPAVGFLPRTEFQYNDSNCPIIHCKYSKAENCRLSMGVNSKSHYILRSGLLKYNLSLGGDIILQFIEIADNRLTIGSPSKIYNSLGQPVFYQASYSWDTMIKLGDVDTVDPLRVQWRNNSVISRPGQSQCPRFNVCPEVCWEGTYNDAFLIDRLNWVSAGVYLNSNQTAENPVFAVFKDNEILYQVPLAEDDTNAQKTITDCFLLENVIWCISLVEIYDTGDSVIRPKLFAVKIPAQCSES

B1: NiVMY G ectodomain (residues 72-602), His-tagged, used for structural determination (domain or fragment)
chain: NYTRSTDNQAVIKDALQGIQQQIKGLADKIGTEIGPKVSLIDTSSTITIPANIGLLGSKISQSTASINENVNEKCKFTLPPLKIHECNISCPNPLPFREYRPQTEGVSNLVGLPNNICLQKTSNQILKPKLISYTLPVVGQSGTCITDPLLAMDEGYFAYSHLERIGSCSRGVSKQRIIGVGEVLDRGDEVPSLFMTNVWTPPNPNTVYHCSAVYNNEFYYVLCAVSTVGDPILNSTYWSGSLMMTRLAVKPKSNGGGYNQHQLALRSIEKGRYDKVMPYGPSGIKQGDTLYFPAVGFLVRTEFKYNDSNCPITKCQYSKPENCRLSMGIRPNSHYILRSGLLKYNLSDGENPKVVFIEISDQRLSIGSPSKIYDSLGQPVFYQASFSWDTMIKFGDVLTVNPLVVNWRNNTVISRPGQSQCPRFNTCPEICWEGVYNDAFLIDRINWISAGVFLDSNQTAENPVFTVFKDNEILYRAQLASEDTNAQKTITNCFLLKNKIWCISLVEIYDTGDNVIRPKLFAVKIPEQCT
stoichiometry N [1]: 4 and 2

B2: 1E5 Fab (Fab, V domains shown)
VH: QVQLQESGPGVVKPSETLSLTCAVSGGSISDTYRWSWIRQPPGKGLEWIGYIYGSATSTYYNPSLSSRVTISKDMSKNQFSLNLNSVTAADTAVYYCARDYQYYYSGSYPTPHNWFDVWGPGVLVTVSS
VL: DIQMTQSPSSLSASVGDRVTITCRASQGIIDYLSWYQQKPGKAPKLLISTASNLESGVPSRFSGSGSGTEFTLTISSLQPEDFATYSCLQGYTTPYTFGQGTKVEIK
notes: source: Expi293F, transient transfection, purified
binding result [2]: binds

B3: 1E5 (antibody, V domains shown)
VH: QVQLQESGPGVVKPSETLSLTCAVSGGSISDTYRWSWIRQPPGKGLEWIGYIYGSATSTYYNPSLSSRVTISKDMSKNQFSLNLNSVTAADTAVYYCARDYQYYYSGSYPTPHNWFDVWGPGVLVTVSS
VL: DIQMTQSPSSLSASVGDRVTITCRASQGIIDYLSWYQQKPGKAPKLLISTASNLESGVPSRFSGSGSGTEFTLTISSLQPEDFATYSCLQGYTTPYTFGQGTKVEIK
IC50 of neutralisation of authentic NiV-MY (plaque reduction; Fig. 2o) [3]: 0.012 µg/mL
IC50 of neutralisation of authentic NiV-BD (plaque reduction; Fig. 2o) [4]: 0.0125 µg/mL
IC50 of neutralisation of authentic HeV (plaque reduction; Fig. 2o) [5]: 0.147 µg/mL
